Data on 21 substances can be found in patent US10774129B2, “Complexes of types of MHC class II that bind to collagen type II peptides and their use on diagnosis and treatment” (FRAUNHOFER-GESELLSCHAFT ZUR FÖRDERUNG DER ANGEWANDTEN …, priority 2011, dated 2020).

Common to all, as to test: in vitro binding assay to recombinant MHC class II protein
The target in test [1] is MHC class II of the HLA DRB1 0101 genotype (Homo sapiens, UniProt P01903+P01911, A100R/D57E/F55L/F60I/F76Y/I96L/L162R/M171V/P40L/Q125E/R42F/V115G/Y59C). More on the design: key: *0101: the listing of the allele in the column for the allele indicates binding; *0401: “0401” in the “Binds to 0401” column indicates binding of the peptide to MHC class II of the HLA DRB1 0401 genotype; *0404: the listing of the allele in the column for the allele indicates binding; *0405: the listing of the allele in the column for the allele indicates binding; *0408: the listing of the allele in the column for the allele indicates binding; *1001: the listing of the allele in the column for the allele indicates binding; “no” or no data indicates no binding to a protein of that genotype. From the text:
(§1) Binding of the peptides to recombinant MHC class II protein of various alleles has been confirmed in an in vitro binding assay and the results are shown in Tables 1, 2 and 3. In table 1, 2 and 3, the listing of the allele in the column for the allele indicates binding. Thus “0401” in the “Binds to 0401” column indicates binding of the peptide to MHC class II of the HLA DRB1 0401 genotype. “no” or no data indicates no binding to a protein of that genotype. Empty boxes indicate no binding or that binding has not been determined. In the tables it is also indicated if the peptide has a citrulline residue, where “yes” indicates the presence of a citrulline residue and “no” indicates the absence of a citrulline residue.

In test [2] the target is MHC class II of the HLA DRB1 0405 genotype (Homo sapiens, UniProt P01903+P01911, A100R/A169T/D86S/F76Y/I96L/K127E/L162R/M171V/N62H/P40V/Q125Y/R42H/S133A/S149N/S66Y/V115G/V209L/W38E). Set-up: key: *0101: the listing of the allele in the column for the allele indicates binding; *0401: “0401” in the “Binds to 0401” column indicates binding of the peptide to MHC class II of the HLA DRB1 0401 genotype; *0404: the listing of the allele in the column for the allele indicates binding; *0405: the listing of the allele in the column for the allele indicates binding; *0408: the listing of the allele in the column for the allele indicates binding; *1001: the listing of the allele in the column for the allele indicates binding; “no” or no data indicates no binding to a protein of that genotype.
Source text: as §1

The target of test [3] is MHC class II of the HLA DRB1 0401 genotype (Homo sapiens, UniProt P01903+P01911, A100K/A169T/F76Y/I96L/K127E/L162R/M171V/N62H/P40V/Q125Y/R42H/S133A/S149N/S66Y/V115G/V209L/W38E). More on the design: key to Binds to 0401: *0101: the listing of the allele in the column for the allele indicates binding; *0401: “0401” in the “Binds to 0401” column indicates binding of the peptide to MHC class II of the HLA DRB1 0401 genotype; *0404: the listing of the allele in the column for the allele indicates binding; *0405: the listing of the allele in the column for the allele indicates binding; *0408: the listing of the allele in the column for the allele indicates binding; *1001: the listing of the allele in the column for the allele indicates binding; “no” or no data indicates no binding to a protein of that genotype. The following applies: recombinant MHC class II, HLA DRB1 0401.
Source text: as §1
Thus for these peptides no binding to HLA-DR0401 was observed when citrulline was exchanged with the original amino acid arginine (Table 4). No binding of the citrullinated peptides was seen to HLA-DR 03 or 02 variants.

For test [4], the target named is MHC class II of the HLA DRB1 0404 genotype (Homo sapiens, UniProt P01903+P01911, A100R/A169T/F76Y/I96L/K127E/L162R/M171V/N62H/P40V/Q125Y/R42H/S133A/S149N/S66Y/V209L/W38E). More on the design: key: *0101: the listing of the allele in the column for the allele indicates binding; *0401: “0401” in the “Binds to 0401” column indicates binding of the peptide to MHC class II of the HLA DRB1 0401 genotype; *0404: the listing of the allele in the column for the allele indicates binding; *0405: the listing of the allele in the column for the allele indicates binding; *0408: the listing of the allele in the column for the allele indicates binding; *1001: the listing of the allele in the column for the allele indicates binding; “no” or no data indicates no binding to a protein of that genotype.
Source text: as §1

Square brackets hold non-standard residues; d marks the D form. Ends that are not written are not given here. Cit = NC(=O)NCCC[C@H](N)C(=O)O

Consider “vimentin 64: human vimentin peptide, not citrullinated (STEYRRQVQSLTCEV; listed as Homo sapiens)”, for which the “Binds to 0101” value in test [1] is reported as “*0101”. In addition, in test [2], the “Binds to 0405” value is “*0405”. Besides, the “Binds to 0401” value in test [3] is reported as “*0401”.

As to “vimentin 1: human vimentin peptide, not citrullinated (MSTRSVSSSSYRRMF; listed as Homo sapiens)”, the “Binds to 0101” value in test [1] is given as “*0101”. Besides, the “Binds to 0404” value in test [4] is on record as “*0404”. For the same substance, the “Binds to 0405” value in test [2] is given as “no”. Moreover, the “Binds to 0401” value in test [3] is on record as “*0401”.

On to “vimentin 33: human vimentin peptide, not citrullinated (VDQLTNDKARVEVER; listed as Homo sapiens)”, for which the “Binds to 0101” value in test [1] is recorded as “no”. In addition, the “Binds to 0404” value in test [4] is “*0404”. In test [2], the “Binds to 0405” value is “no”. In addition, the “Binds to 0401” value in test [3] is “*0401”.

For “vimentin 81: human vimentin peptide, not citrullinated (RKLLEGEESRISLPL; listed as Homo sapiens)”, the “Binds to 0101” value in test [1] is recorded as “no”. Also, in test [4], the “Binds to 0404” value is “no”. Also, the “Binds to 0405” value in test [2] is “no”. Further, the “Binds to 0401” value in test [3] is reported as “*0401”.

Consider “type II collagen 242: human collagen type II peptide, not citrullinated (GIVGLPGQRGERGFP; listed as Homo sapiens)”, for which, in test [1], the “Binds to 0101” value is “*0101”. Further, the “Binds to 0404” value in test [4] is reported as “*0404”. For the same substance, in test [2], the “Binds to 0405” value is “*0405”. In test [3], the “Binds to 0401” value is “*0401”.

For “vimentin 77: human vimentin peptide, not citrullinated (REYQDLLNVKMALDI; listed as Homo sapiens)”, the “Binds to 0101” value in test [1] is “*0101”. Besides, the “Binds to 0405” value in test [2] is listed as “*0405”.

As for “vimentin 105: citrullinated human vimentin peptide (YAT[Cit]SSAV[Cit]L[Cit]SSVP; listed as Homo sapiens)”, the “Binds to 0101” value in test [1] is recorded as “*0101”. Also, the “Binds to 0404” value in test [4] was “no”. In test [2], the “Binds to 0405” value is “no”. Besides, in test [3], the “Binds to 0401” value is reported as “*0401”.

With “type II collagen 411: citrullinated human collagen type II peptide (GIVGLPGQ[Cit]GE[Cit]GFP; listed as Homo sapiens)”, the “Binds to 0404” value in test [4] is given as “*0404”. In addition, the “Binds to 0405” value in test [2] was “*0405”. The “Binds to 0401” value in test [3] is “*0401”.

Take “vimentin 111: citrullinated human vimentin peptide (FKNT[Cit]TNEKVELQEL; listed as Homo sapiens)”: the “Binds to 0101” value in test [1] was “*0101”. Further, in test [4], the “Binds to 0404” value is reported as “No”. In test [2], the “Binds to 0405” value was “no”. Besides, the “Binds to 0401” value in test [3] was “*0401”.

Consider “vimentin 117: citrullinated human vimentin peptide (LLAELEQLKGQGKS[Cit]; listed as Homo sapiens)”, for which the “Binds to 0101” value in test [1] is “*0101”. In test [4], the “Binds to 0404” value is recorded as “No”. Also, the “Binds to 0405” value in test [2] is recorded as “no”.

In the case of “vimentin 41: human vimentin peptide, not citrullinated (NTLQSFRQDVDNASL; listed as Homo sapiens)”, in test [4], the “Binds to 0404” value is reported as “*0404”. For the same substance, the “Binds to 0405” value in test [2] is on record as “*0405”. Also, the “Binds to 0401” value in test [3] is “*0401”.

In the case of “vimentin 34: human vimentin peptide, not citrullinated (NDKARVEVERDNLAE; listed as Homo sapiens)”, the “Binds to 0101” value in test [1] is reported as “no”. Moreover, the “Binds to 0405” value in test [2] is listed as “no”. Moreover, the “Binds to 0401” value in test [3] is given as “*0401”.

On to “vimentin 106: citrullinated human vimentin peptide (SAV[Cit]L[Cit]SSVPGV[Cit]LL; listed as Homo sapiens)”, for which the “Binds to 0101” value in test [1] is “*0101”. Besides, in test [4], the “Binds to 0404” value was “*0404”. Besides, the “Binds to 0405” value in test [2] is given as “*0405”. In test [3], the “Binds to 0401” value was “*0401”.

Consider “vimentin 98: citrullinated human vimentin peptide (SS[Cit]SYVTTST[Cit]TYSL; listed as Homo sapiens)”, for which the “Binds to 0405” value in test [2] is given as “*0405”. The “Binds to 0401” value in test [3] is “*0401”.

In the case of “vimentin 166: citrullinated human vimentin peptide (THSK[Cit]TLLIKTVET[Cit]; listed as Homo sapiens)”, the “Binds to 0101” value in test [1] was “no”. In addition, in test [4], the “Binds to 0404” value is on record as “*0404”. In addition, the “Binds to 0405” value in test [2] is reported as “no”. Besides, the “Binds to 0401” value in test [3] is “no”.

Regarding “vimentin 104: citrullinated human vimentin peptide (SPGGVYAT[Cit]SSAV[Cit]L; listed as Homo sapiens)”, in test [1], the “Binds to 0101” value was “*0101”. In addition, in test [4], the “Binds to 0404” value is recorded as “*0404”. Moreover, the “Binds to 0405” value in test [2] was “no”. The “Binds to 0401” value in test [3] is listed as “*0401”.

For the substance “type II collagen 241: human collagen type II peptide, not citrullinated (LAGQRGIVGLPGQRG; listed as Homo sapiens)”, the “Binds to 0404” value in test [4] is “*0404”. Also, in test [2], the “Binds to 0405” value was “*0405”. In test [3], the “Binds to 0401” value is on record as “no”.

On to “type II collagen 332: citrullinated human collagen type II peptide ([Cit]GPPGPQGA[Cit]GFPGT; listed as Homo sapiens)”, for which, in test [4], the “Binds to 0404” value is listed as “*0404”. The “Binds to 0405” value in test [2] is “*0405”. The “Binds to 0401” value in test [3] was “*0401”.

On to “vimentin 3: human vimentin peptide, not citrullinated (YRRMFGGPGTASRPS; listed as Homo sapiens)”, for which the “Binds to 0101” value in test [1] is recorded as “*0101”. In addition, the “Binds to 0404” value in test [4] is on record as “*0404”. Moreover, in test [2], the “Binds to 0405” value was “*0405”. In addition, the “Binds to 0401” value in test [3] is listed as “*0401”.

For “vimentin 108: citrullinated human vimentin peptide (GVXLLQDSVDFSLAD; citrullinated; MOD_RES (3)..(3) Citrulline; listed as Homo sapiens)”, the “Binds to 0101” value in test [1] is listed as “no”. Further, the “Binds to 0404” value in test [4] is on record as “no”. The “Binds to 0405” value in test [2] was “no”. In addition, in test [3], the “Binds to 0401” value is recorded as “*0401”.

Regarding “vimentin 133: citrullinated human vimentin peptide (DNASLA[Cit]LDLE[Cit]KVE; listed as Homo sapiens)”, the “Binds to 0101” value in test [1] was “no”. In test [4], the “Binds to 0404” value is recorded as “No”. Besides, in test [2], the “Binds to 0405” value is on record as “no”. For the same substance, in test [3], the “Binds to 0401” value is “*0401”.
